The target in this experiment is chicken lysozyme (chicken) (UniProt P00698). Kind of experiment: far-Western, overlay or dot blot; proteins resolved by SDS-PAGE and transferred to PVDF; biotinylated CaM 1:2400, 30 min at room temperature in TBS-T with 1 mM CaCl2; VectaStain, chemi-luminescence.

The substance “biotinylated calmodulin (CaM) (from UniProt P0DP23 1-149) (natural protein; other documents disagree on this pair)” had a fold lower CaM binding signal than for CaMKII of 500 fold.
